According to patent US9539338B2, “Polymer-based protein engineering methods to rationally tune enzyme activity, pH-dependence and stability” (Carnegie Mellon University, priority 2013, dated 2017):

Experiments:
Suc-AAPF-pNA [1] = target: T1, Suc-AAPF-pNA (Bos taurus, UniProt P00766); assay: Enzyme activity: hydrolysis of Suc-AAPF-pNA at pH 5-10 (native CT, chymotrypsin-pQA conjugates); type: biochemical; conditions: 0.1 M phosphate buffer
T1 construct: purchased Sigma Aldrich; host or cells: bovine pancreas
Protocol: (§1) N-Succinyl-Ala-Ala-Pro-Phe p-nitroanilide (0 to 50 μL of 9.60 mM in DMSO) was added to sodium phosphate buffer (990 to 940 μL of 100 mM, pH 5-10). Native CT or conjugates solution (10 μL of 4.0 μM) was added to the substrate solution. The initial rate of hydrolysis of the peptide substrate was monitored by recording the increase in absorption at 412 nm using a UV-VIS spectrometer. The Michaelis-Menten parameters (kcat, KM and kcat/KM) were determined by non-linear curve fitting (using the well known Michaelis-Menten kinetics equation, V=Vmax[S]/KM+[S], kcat=Vmax[E] where [E] is enzyme concentration, [S] is substrate concentration, and V is initial rate of the reaction) of plots of initial rate versus substrate concentration using the Enzfitter software.
Enzyme activity (kcat), specificity (KM), and productivity (kcat/KM) values were determined for each of the conjugates and native chymotrypsin at 25° C. in 0.1 M phosphate buffer (pH 5-10). Values were determined by monitoring the enzyme catalyzed hydrolysis of Suc-AAPF-pNA. Enzyme concentration for each of the reactions was 39 nM, with substrate concentrations ranging from 0-700 μM. The reaction was monitored for the first 30 seconds after mixing enzyme and substrate.

[2] = In vitro gastric acid stability, 167 mM HCl, 37° C.; type: physicochemical; conditions: 167 mM HCl (pH 1), 3 hours
Protocol: Native CT and CT-conjugates were incubated at 4 μM in 167 mM HCl at 37° C. in 50 μL aliquots. Aliquots were removed at specified time points and residual activity was measured at 25° C. in 0.1 M sodium phosphate buffer (pH 8.0) with Suc-AAPF-pNA as substrate (288 μM). Each time point was measured in duplicate and residual activity was calculated as the ratio of activity remaining from time zero.

Suc-AAPF-pNA [3] = target: T1, Suc-AAPF-pNA; assay: Enzyme kinetic assay: hydrolysis of Suc-AAPF-pNA at pH 5-10 (native CT, CT-PDMAEMA conjugates); type: biochemical
Protocol: as §1, with “Km” for “KM”, “kcat/Km)” for “kcat/KM)”, “(equation for” for “(using the well known”, “parameters)” for “kinetics equation, V=Vmax[S]/KM+[S], kcat=Vmax[E] where [E] is enzyme concentration, [S] is substrate concentration, and V is initial rate of the reaction)”

[4] = Stability in artificial gastric acid solution, 167 mM HCl, 37° C. (chymotrypsin-pQA); type: physicochemical; conditions: 167 mM HCl (pH 1)
Protocol: Native CT and conjugates (1.5 to 2.0 mL, 4.0 μM) were incubated in 100 mM sodium phosphate buffer (pH 7.0) at 50 or 60° C., and an artificial gastric acid solution (167 mM HCl aq. pH 1.5) at 37° C. Aliquots (50 μL) were removed and kept at 0° C. before measuring residual activity. The residual activity was calculated as a ratio of initial rates of hydrolysis reaction at given incubation time over the initial activity for each specific sample.

NS-AAPF-pNA = target: T2, NS-AAPF-pNA (Bos taurus, UniProt P00766); assay: CT and CT conjugate biocatalytic activity, 2.5 to 37.5° C.; type: biochemical
T2 construct: purchased Sigma Aldrich; host or cells: bovine pancreas
Protocol: N-succinyl-L-Ala-L-Ala-L-Pro-L-Phe-p-nitroanilide was used as a substrate for enzyme bioactivity assays. In a cuvette, 0.1 M sodium phosphate buffer (2820-2970 μL, pH 8.0), substrate (0-150 μL, 6 mg/mL in DMSO (0-500 μM)), and enzyme (30 μL, 0.1 mg enzyme/mL 0.1 M pH 8.0 sodium phosphate buffer (0.04 μM)) were mixed. The rate of the hydrolysis was determined by recording the increase in absorbance at 412 nm for the first 30 seconds after mixing. KM and kcat values were calculated using EnzFitter software when plotting substrate concentration versus initial hydrolysis velocity.
CT conjugate kinetics were examined at a variety of temperatures (2.5° C., 7° C., 16.5° C., 24.5° C., 33° C., and 37.5° C.) to determine the effect of polymer UCST and LCST phase transitions and molecular weight on enzyme kinetics (see FIGS. 11(a)-(c) and Table 16 below).

[5] = pH 5.0, 100 mM sodium phosphate
[6] = pH 6.0, 100 mM sodium phosphate
[7] = pH 7.0, 100 mM sodium phosphate
[8] = pH 8.0, 100 mM sodium phosphate
[9] = pH 9.0, 100 mM sodium phosphate
[10] = pH 10.0, 100 mM sodium phosphate

For “α-Chymotrypsin (CT) from bovine pancreas (type II) [Native CT]”, the Km (Suc-AAPF-pNA [1]; pH 5.0, 25° C.) was 184 µM, the kcat (Suc-AAPF-pNA [1]; pH 5.0, 25° C.) was 2.85 s⁻¹ and the Km (Suc-AAPF-pNA [1]; pH 6.0, 25° C.) was 171 µM. The kcat (Suc-AAPF-pNA [1]; pH 6.0, 25° C.) was 14.80 s⁻¹, the Km (Suc-AAPF-pNA [1]; pH 7.0, 25° C.) was 94.3 µM and the kcat (Suc-AAPF-pNA [1]; pH 7.0, 25° C.) was 26.81 s⁻¹. For the same substance, the Km (Suc-AAPF-pNA [1]; pH 8.0, 25° C.) was 82.6 µM, the kcat (Suc-AAPF-pNA [1]; pH 8.0, 25° C.) was 32.00 s⁻¹ and the Km (Suc-AAPF-pNA [1]; pH 9.0, 25° C.) was 123 µM. It also gave a kcat (Suc-AAPF-pNA [1]; pH 9.0, 25° C.) of 33.30 s⁻¹, a Km (Suc-AAPF-pNA [1]; pH 10.0, 25° C.) of 336 µM and a kcat (Suc-AAPF-pNA [1]; pH 10.0, 25° C.) of 36.62 s⁻¹. For the same substance, the activity maintained [2] was “complete activity loss”, the Km (Suc-AAPF-pNA [3]; [5]) was 212 µM and the kcat (Suc-AAPF-pNA [3]; [5]) was 2.28 ± 0.36 s⁻¹. For the same substance, the Km (Suc-AAPF-pNA [3]; [6]) was 189 µM, the kcat (Suc-AAPF-pNA [3]; [6]) was 12.13 s⁻¹ and the Km (Suc-AAPF-pNA [3]; [7]) was 84.1 µM. The kcat (Suc-AAPF-pNA [3]; [7]) was 21.54 s⁻¹, the Km (Suc-AAPF-pNA [3]; [8]) was 55.2 µM and the kcat (Suc-AAPF-pNA [3]; [8]) was 26.67 s⁻¹. The Km (Suc-AAPF-pNA [3]; [9]) was 104 µM, the kcat (Suc-AAPF-pNA [3]; [9]) was 29.49 s⁻¹ and the Km (Suc-AAPF-pNA [3]; [10]) was 258 µM. The kcat (Suc-AAPF-pNA [3]; [10]) was 27.69 s⁻¹, the “time after which all activity was lost” value [4] was 3 h and the Km (NS-AAPF-pNA; 2.5° C., 0.1 M sodium phosphate pH 8.0) was 30 ± 5.1 µM. For the same substance, the kcat (NS-AAPF-pNA; 2.5° C., pH 8.0) was 8.9 ± 0.4 s⁻¹, the kcat (NS-AAPF-pNA; 2.5° C., pH 8.0, listed as native chymotrypsin) was 8.9 ± 0.4 s⁻¹ and the Km (NS-AAPF-pNA; 7° C., pH 8.0) was 29 ± 6.9 µM. It also gave a kcat (NS-AAPF-pNA; 7° C., pH 8.0) of 9.7 ± 0.5 s⁻¹, a kcat (NS-AAPF-pNA; 7° C., pH 8.0, listed as native chymotrypsin) of 9.7 ± 0.5 s⁻¹ and a Km (NS-AAPF-pNA; 16.5° C., pH 8.0) of 37 ± 8.6 µM. The kcat (NS-AAPF-pNA; 16.5° C., pH 8.0) was 16 ± 0.9 s⁻¹, the kcat (NS-AAPF-pNA; 16.5° C., pH 8.0, listed as native chymotrypsin) was 16 ± 0.9 s⁻¹ and the Km (NS-AAPF-pNA; 24.5° C., pH 8.0) was 51 ± 8.7 µM. It also gave a kcat (NS-AAPF-pNA; 24.5° C., pH 8.0) of 25 ± 1.3 s⁻¹, a kcat (NS-AAPF-pNA; 24.5° C., pH 8.0, listed as native chymotrypsin) of 25 ± 1.3 s⁻¹ and a Km (NS-AAPF-pNA; 33° C., pH 8.0) of 57 ± 5 µM. For the same substance, the kcat (NS-AAPF-pNA; 33° C., pH 8.0) was 36 ± 1.3 s⁻¹, the kcat (NS-AAPF-pNA; 33° C., pH 8.0, listed as native chymotrypsin) was 36 ± 1.3 s⁻¹ and the Km (NS-AAPF-pNA; 37.5° C., pH 8.0) was 59 ± 6.9 µM. It also gave a kcat (NS-AAPF-pNA; 37.5° C., pH 8.0) of 47 ± 1.7 s⁻¹ and a kcat (NS-AAPF-pNA; 37.5° C., pH 8.0, listed as native chymotrypsin) of 47 ± 1.7 s⁻¹.
